Data: the DeepSol protein solubility set

Experiment: soluble on expression in E. coli; label from the status in PepcDB or PDB records

**Q.** With “MANSMATLSRRLYRSLLSNPRISQASMSFCTNNITSPEDSDFDELESPIEPKASDPVSRFSGEERVMEERPLENGLDSGIFKAILVGQVGQLPLQKKLKSGRTVTLFSVGTGGIRNNRRPLINEDPREYASRSAVQWHRVSVYPERLADLVLKNVEPGTVIYLEGNLETKIFTDPVTGLVRRIREVAIRRNGRVVFLGKAGDMQQPSSAELRGVGYY” as the sequence, how does the “soluble on expression in E. coli” value read?
**A.** Its value is “soluble”.

**Q.** With “MKRAVITGLGIVSSIGNNQQEVLASLQEGRSGITFAQEFKDAGMRSHVWGDVKLQSEPKDLIDRKVLRFMSDASIYAYLAMQEAIADSGLSDSQVSNFRSGLVVGSGGGSPRNQVAGSDAMRTPRGLKGVGPYMVTKAMASGVSACLATPFKIKGVNYSISSACATSAHCIGHALELIQLGKQDIVFAGGGEELCWEMACEFDAMGALSTKYNDTPAKASRTYDQDRDGFVIAGGGGMVVVEELEHALARGAHIYAEIVGYGATSDGADMVAPSGEGAVRCMQMAMAGVDTPIDYMNVHGTSTPVGDVKELGAIREVFGNNTPAISSTKAMTGHSLGAAGVHEAIFSLLMVEHGFIAPSINIDNLDEQAQGMNIITETTQRELTTVMSNSFGFGGTNATLVMRKYQK” as the sequence, how does the “soluble on expression in E. coli” value read?
**A.** Its value is “not soluble”.

**Q.** For “MNIERKQAKQKEISSGHSFLEWGMTILKMPPAKRIKMVRDGVKVTHLVGAGRYYGISQAKLSKLLGISDATITRKIRSSGKLGPLESERLARIALIEAEAEKVFDSSDLAKRWMLESNLALGESPLSLLDTDMGADEVRKVLASIAYGGIA”, which “soluble on expression in E. coli” value is on record?
**A.** The value was “not soluble”.

**Q.** For “MGSDKIHHHHHHMLPKWDNSYSVHNAKIDEQHKKLFKLAAKVEVVSDRSVSKNEVKELLAEFFNYMKDHFNDEEKYMQLIGYPNLEEHRKIHKEIIQTMINLIKDIKSTNDLKEKLYIVAKKWLLEHILYEDMKVEKWRSSSLSTDDGGDVSFEAAEDEDNEHPQFYLYTCNCPGKIHDVPYSIHQKIELQGRKFTCKTCKQAIKFYKKYS”, which “soluble on expression in E. coli” value is on record?
**A.** Its value is “not soluble”.

**Q.** Which “soluble on expression in E. coli” value does the source give for “MMKQSFLANERIYLRAVEPEDLDLMYEMENDPSMWDISSFTVPYSRFVLKQYIEGSQSDMFADKQLRLMIMRRKDNCTLGTVDITDFVPLHSRGAVGIAVHSNYRQEGYASDALKLLCEYAFNFLFIKQLYAHIAVDNEPSLRLFNSCGFTQCGVLKEWLLTHEGYKDAVLVQCMNPKR” here?
**A.** Its value is “not soluble”.

**Q.** Which “soluble on expression in E. coli” value does the source give for “MGSDKIHHHHHHMNEKELAGWFPQAKLSQEADAQSLALGDGRYLNLADADLTERERYLLSLLSHPQEQKPSSPWQSYLHGQSSLPQAVEAIQFIHVHLWSQKDAQLDAWQTMMTDLLPSQLAQVQLSSQDYLFIIEQSRWTDYQTILADTLSALEFDFGLRLTFLVGQVWSRQLADRWSQLYQAEAALFAHWRAHYHQSTVLSFSQLFLWGQGRAGLEFGMIKASMLQLIDQQDMQDIILALWTEGAVVTKTAQILYIHRNTLQYRLDKWQDLTGLQLKDLTDLSFCYQVLLDRLF” here?
**A.** Its value is “not soluble”.

**Q.** With “MSLTSPLAYSYTHTGTEATTGYFSCEPPQDMTMEQALAWLAVHPMDDFMHRHLLRRLGEMSPEELAKLGPTLQASPVLEALFCELCALAPEGSPLRATLTEILEGLSTTSEASPAAIAERLGAYTPLPYIGWAALPDRELHQAWCRLFSDNIQNHRMLPHPEDNDLAPLYADEEPATRPEPPITAVHARLAAAPGTPWSRPPAHETAQKALEVLVENDIIAGVEMRHEASLSPIALLRRWRLDLGVRNGGLAYTLRGEATTYGRGLSLADARASYAMEMVERASSYANVGPEGILGLTRPQPLRKARHSELVAEGLAVLDPNAIPLEVPYRDQPIHWLTGHASEANGNAPTLVPAQMVYLFCNLDEVALFTSSSSTGLASGNTLAEAKVAALTEILERDAEATTPYDRARCFRPATDDPLLRSLLEDYAARGIQIQMQDMTTEWGIPCYTCFVMSSRGKLARGTGAGLDGRRAAISALTETPYPYPRGGASGPGLRGLPERKLEDLPSFTLESPERNLALLEETLASTGHHPVYVELTRADLGLPVVKALIPGLELTADFDDCTRISRRLYRNYLRMGYDEGHHHHHH” as the sequence, how does the “soluble on expression in E. coli” value read?
**A.** Its value is “soluble”.

**Q.** Which “soluble on expression in E. coli” value does the source give for “MKTVICGVQNMTTIRRLSAEDLLHFNSVNLDQLTETFNLGFYFNYLARWPDYQYVVTDSQSTTVAYIIGKAEGAGDLFHGHVSAVTVAPWFRRMGLASLLMEILENVSEKVYQGYFVDLFVRVSNHRAIEMYKKLGYIVYRRIIGYYSGEEDAFDMRKSLSKDPERKAMIPLDRPVYPSEVLLTD” here?
**A.** The value was “soluble”.

**Q.** With “MAARTALGAVCRRLWQGLGNFSVNTSKGNTAKNGGLLLSTNMKWVQFSNLHVDVPKDLTKPVVTISDEPDILYKRLSVLVKGHDKAVLDSYEYFAVLAAKELGISIKA” as the sequence, how does the “soluble on expression in E. coli” value read?
**A.** The value was “not soluble”.

**Q.** With “MSLIHAGSMIDGVAKKIKTKQTIVIEDGVIIDVKSGYTKAKPNDIVIDLKNTTVTPGWMDLHVHLGSQSSPQSYSEDFYLNPEDFAYRSVPWIEKTLLAGFTTVRDVGGEVVLAARNAVNNGYINGPRIFSAGRSIGTTGGHADPSSGLNRKFRGDPGPHDAVVNGVDDAMKAVRQRYKDGSDLIKITATGGVLSVAKNGQNPQFTEEEIRAIVETAKDYEMHVAAHAHGVEGMQRAIRAGVRTIEHGTLMDRPTARLMKKYGTYYVPTVSAGEFVYEKAKEPGYFPEIVRPKALEIGPKIKKTLGMAYEEGVKIAFGTDMGVSPHGENADEFVYMVEAGMKPIDAIFAATSIAAEVLNQEDLGKIKKGMKADIVAVNGNPLKDIAVTKNVVFVMKDGVVYKQPINLKEGHHHHHH” as the sequence, how does the “soluble on expression in E. coli” value read?
**A.** Its value is “soluble”.

**Q.** With “MPTQFIRNRSAFPQGTNNDIDDFQYQNDFSSSSHQLPSTASGYSEHSSHQNFQNHSPPPGKATTDPLAGALLGLSDVITKSLISHPCGVLRRQCQVHQFAGSLHLTPVTLIPVICNSVAKQGIQTFWKGAIGSSVLWGLTNVTEIVLGDLMGLPRTFVVNGSAEKYWKHIVLKGVTFVTMTPFYISSFIETVRSESGIGGEDNKILDVLVKGVDRMRYFLTSGRDPSRRFSIIHLAIPTAGFQVGHYMLQTALYHQFFRMAKRYVNRKSPAEKTTYHDFLPQMFAQTSSMVLTDLILYPFETIVHRMYIQGTRTLIDNMDTGLSAVSMTVKYSGYFDCVRQVLETEGFWALYAGVGAVLLEYSLHQGLQQLVRACFDRGSELLRKATQGHPVVQSSQITPPISAKSSFNGPISNSFPSAGAALLSPMSTPRKHSTPPKDPTEFPTFGETVSQIGSPYQMPDRPNVFGSPPNRTRATHDSTQSLPPLQLNIRPSSGDPFSG” as the sequence, how does the “soluble on expression in E. coli” value read?
**A.** Its value is “not soluble”.

**Q.** With “MSLGEESRDPVAALRLIKHDQQANLYVLCDLHPFLGDSPTLVRLLKEIAMAEGNHRPTVVLVSHALKLPAEVQRFAARFSLSLPSEDELLGIVREEATRWSERNRGARVRTDNRTLQQVVKNLRGLSHAEARLLARNVICNDGAITQEDLPELNRTKFQLLDLEGVLSFEYDTARFAEVGGLAALKRWLGERQSAFLAGKPGDQPKGMMLVGVQGAGKSLAAKAVAGLWGLPLLRLDFACLYNKYFGETERNLREALRLAEQMAPCVLWMDEVEKGISGGDQDNGVSQRVLGTLLTWMAEREAPVFMVATANAIDRLPPELIRKGRFDELFFVDLPTPEVRAEIFRIHLQRRELEPAQFDLHLLAAASEGFSGAEIEQAVVAALYAGQARQQAVDQDLLLRELARTSPLSVLMAEKLAALRTWAKGRAVPADEGHHHHHH” as the sequence, how does the “soluble on expression in E. coli” value read?
**A.** The value was “not soluble”.

**Q.** With “SLVSSSKITRAREMVTKTEEKQLNQLEIQVDNGGGGTWEYLCLVRNLKVRRSEKVLKHGSSILNDQKKRSALGPDEWTLNEQVAIAAMDCQCLGVAQSCIKALQTKFPGSKRVGRLEALLLEAKGLWGEAEEAYASLLEDNPLDQAIHKRRVAISKALGKPSIAIELLNKYLELFMADHDAWRELAELYLSLQMYKQAAFCYEELILSQPTVPLYHLAYAEVLYTIGGVENIISARKYYAATVDLTGGKNTRALLGICLCASAIAQLSKGRNKEDKDATAAPELHSLAAAAVEKEYKQKAPDKLQLISSALRILKT” as the sequence, how does the “soluble on expression in E. coli” value read?
**A.** Its value is “soluble”.

**Q.** For “MKNLENYFDKAELQHFFECLTDDDNTPQASVFFRLAAFTGMRKSEMLCLEWSDIDFSNHTIRVNKTQSRGDGARLLVQAPKTARSNRTVYLDPTTIKILQHWQVDQKKWLLRFGFNINQGNHYVFANENNEMFQPSKPRKWLEHTLTKYDLKHVTVHAFRHTYATLAFEAHASIKSVQDQLGHSSYRTTLDIYTAVTAKQKNEATEKLANYLNFLEHHHHHH”, which “soluble on expression in E. coli” value is on record?
**A.** The value was “not soluble”.

**Q.** For “MGSDKIHHHHHHMKDLVYLNYAATSYKKFPATIEALTAYLAENQFMNYGRNAPLLREGLPLLETRQLLADFFQAPSAAQITFTNNATTSLNLALAGILQPGDHVITTMLEHHAVARPLHLLEKERGISVTYVACQKTGLLEVEDIQRAWRTNTKALVMTHASNVLGTILPIEECFQWAQQKGLLTILDAAQTAGFLPIKMTQMAIDVLAFTGHKSLYGLAGIGGLAFSERGAEAVKPLMAGGTGSHSNSFDQPSFLPDKFEAGTLNSLGILSLNSSIKELNKIGLAAIQKHERTLMQNFLNGLSGLPVTILGTKDVAQTVPVVSITLWNQEETIVAQQLAEQYGIMTRAGLHCAPLAHQTAGTLATGTLRFSFGWQTTPEEITWTIHALQELLI”, which “soluble on expression in E. coli” value is on record?
**A.** Its value is “not soluble”.

**Q.** Which “soluble on expression in E. coli” value does the source give for “MNYSPKQGVRSHGLPHDPFKSSTVPRPIGWISTVSKDGKDNLAPYSQYQNLTWDPPMVMFAANQSVLGDHERKDTVKNAEETGWFVWNMATYDLREAVNLSSKALPPEEDEFEYAGVTKEACIEAPGYRVKESPVHFECEYVQTIRIPTGDPVSTVDIVIGRVAQVHIDDKVILDNGKLDIKSIKPIARLGYYDYTVVNEIFEMKAPAASKEELAGLEGRNFDNQSDEKR” here?
**A.** Its value is “not soluble”.

**Q.** With “GREQMASFESAYVALSRMKQHVQVYTDNREGWIKAIKNSPEKATAHDILEPRNDRAVKTADLLFGRARPLDETAAGRAALQQSGLAQGSSPGKFISPGKKYPQPHVALPAFDKNGKAAGIWLSPLTDRDGRLEAIGGEGRIMGNEDARFVALQNSRNGESLLAGNMGEGVRMARDNPDTGVVVRLAGDDRPWNPGAMTGGRVWAEPAPVAPVPQAGADIILPPEVLAQRAAEEQQRREMEKKAEQTAREMAGEARKAG” as the sequence, how does the “soluble on expression in E. coli” value read?
**A.** Its value is “not soluble”.

**Q.** Which “soluble on expression in E. coli” value does the source give for “MSLGQKVRGNLIIIGGAEDKVGKKTILKYVADIVREKKGSLVILTTATQKPQEVGNNYRQVFETLGLMDIDVLNINSRDEADLDENAERIRSSGGIFFTGGDQLRITSILGGTKVYKALHEVYSKGVVIVGTSAGASVMSNTMIVEGKDNEPARKCTMKMAPGLGFLEEAIIDQHFDQRGRIGRLLCGVAENPFMLGIGIDEDTAIRVYPDAHFEVLGSNAVTVIDGSTIKSTNVSELNPDEILAISGVTLHVLPCGYGFDMKKKRSEGHHHHHH” here?
**A.** The value was “soluble”.

**Q.** For “MSLKVLAFDTSSKALSLAILEDKQVLAETTINIKKNHSITLMPAIDFLMASLDWTPKDLDRIVVAEGPGSYTGLRIAVATAKTLAHTLNIELVGMSSLLALVPYQQEGLFIPLMDARRNNVYAGFYENAKPVMAEAHLPFERVIELIKGASQVTFVGEVGPFVEQIQKHLPRTDYKETLPNAANLALLAWDKEADSLHDFVPNYLKRVEAEENWLKNHTESGESYIKRLEGHHHHHH”, which “soluble on expression in E. coli” value is on record?
**A.** Its value is “soluble”.

**Q.** Which “soluble on expression in E. coli” value does the source give for “MGSDKIHHHHHHMRGSAVARDLTDDKAMVHGALSMLARGGAVDQAYAPDAVAEIAHPYGTCTGADITRFYGDLHRALPDANWRPEIFFAGHNHPDERMEGPRVAAQVGSFGHWQGTFTQPLLGIEPTGGVVHLRMCEVHHLNAAGQIAQSWILPDFLDLMDQAGQFPLPPMNGARGLWPGPRGGNGVRMGPPDVAGGNASMAQVLDMHNALNTHVGADVSGLTMAHWDPNFMYYAAAGIGICRGVEGFRRNHQIPFREAVPDRYSKGHFVRIADGRFALTGGRLYATHTGTYLGIPATGRQVHIDVMDFYHFHDQGLICQNWLPFDILKTAHQMGVDLLPALPS” here?
**A.** The value was “not soluble”.
